The results in this text go back to publication PMC7443878 (Proceedings of the National Academy of Sciences of the …, 2020).

The labels stand for the following.
B2: His-MBP-RIPK3 (388–514) (domain or fragment)
chain: SSDSMAQPPQTPETSTFRNQMPSPTSTGTPSPGPRGNQGAERQGMNWSCRTPEPNPVTGRPLVNIYNCSGVQVGDNNYLTMQQTTALPTWGLAPSGKGRGLQHPPPVGSQEGPKDPEAWSRPQGWYN

The target of the experiment “His-MBP-RIPK3 (388–514)” is B2. Put plainly: pull-down.
The target in the next experiment is MBP-MYC (1–144) (UniProt P01106-1 1-144). Description: pull-down.
Chain of MBP-MYC (1–144) (P01106 16-159): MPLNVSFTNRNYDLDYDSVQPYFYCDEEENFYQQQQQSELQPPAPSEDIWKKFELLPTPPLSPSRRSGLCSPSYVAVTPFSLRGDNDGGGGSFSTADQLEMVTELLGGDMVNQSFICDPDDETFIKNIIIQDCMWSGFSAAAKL

B1: recombinant MBP-RIPK1 RHIM domain (496–583) (domain or fragment)
chain: HMPSLHNIPVPETNYLGNTPTMPFSSLPPTDESIKYTIYNSTGIQIGAYNYMEIGGTSSSLLDSTNTNFKEEPAAKYQAIFDNTTSLT
For the molecule B1, the binding result with His-MBP-RIPK3 (388–514) is listed as “binds”.

On to B2, for which the binding result with MBP-MYC (1–144) is “binds”.
